For 167 variants, self-cleavage results are on record in the RNAGym collection of RNA variant scans (doi:10.7554/elife.80360).

To fix the notation:
B1: Hairpin Ribozyme (parent)
chain: GUCCUCUUUCACGUGCGCGUGAAAGAGAGAAGUGAACCAGAGAAACACACGUUGUGGUAUAUUACCUGGUA

In the data set the parent is B1. The data set can be described thus: self-cleavage, relative activity (ratio to wild type); higher = more cleavage; co-transcriptional.
On to C10A G34U, for which the self-cleavage stood at 1.01.
With A22G A61C the figure was 0.337; with C6U G51U, 0.88.
With C4G A61U the figure was 0.0796; with G13C U62G, 0.185; with G13A A30G, 0.104.
With C16G C65G the figure was 0.163; with C10G U63G, 0.113; with A45G U55A, 0.121.
Consider C18U C46U, for which the self-cleavage was 0.195.
With A11G A30G the figure was 0.269.
With G29C C48G the figure was 0.0534; with C3U G29U, 0.117; with C4A G15C, 0.358.
Then U2G A22C, with 0.354; and C4G U67C, with 0.0875; and G25U G27U, with 0.17.
As for A31G A49U, the self-cleavage came to 0.11.
A26U A49C: the self-cleavage worked out at 0.157.
With G15C C66G the figure was 0.0808.
Then G42A U62C, with 0.133; and U55G U60A, with 0.0917.
Then C10U G27U, with 0.225; and A26G A39G, with 0.379; and U5A A43C, with 0.113.
In the case of C12A U70C, the self-cleavage amounted to 0.722.
Then C16U A39G, with 0.326; and A26C A44C, with 0.0715; and U55A U60A, with 0.245.
Then C6U G13A, with 0.712.
With C6U G13C the figure was 0.65; with A35U A64U, 0.178.
Take G21A A28C: the self-cleavage came to 0.472.
Then A26C U62G, with 0.0946; and A45U A49G, with 0.165.
Consider C4U G54A, for which the self-cleavage stood at 0.166.
For the variant G19U G32U, the self-cleavage was 0.118.
With G17C A61U, the self-cleavage stood at 0.198.
Then C4G G68U, with 0.0845; and C10A G32U, with 0.156.
For A11U A41C, the self-cleavage stood at 1.01.
Then A44C C66G, with 0.0764.
In the case of G56A A61C, the self-cleavage amounted to 0.112.
Then U9C G69C, with 0.136; and C10G U52G, with 0.631.
Then U9A C18A, with 0.855; and A35C A59G, with 0.124.
With U62C U63C the figure was 0.168; with C10A A31C, 0.09; with G57C C65U, 0.192.
U20G C38U: the self-cleavage stood at 0.542.
With A36U G69U the figure was 0.228.
Then G21A A39C, with 0.467; and U9G A49G, with 0.558.
With U58A A71U the figure was 0.391; with U7G A28U, 0.498; with U53C U67A, 0.28.
A26C A35U: the self-cleavage was 0.495.
With U20G A47U the figure was 0.0722; with G54A G56A, 0.0848; with A35U G57U, 0.311.
For the variant U14A A43U, the self-cleavage was found to be 0.0759.
With A41C A49U the figure was 0.0586; with A22U A30C, 0.223.
Then G17C A47U, with 0.222; and G54A U63G, with 0.172.
With U9C C48A the figure was 0.0859.
In the case of U7A C18U, the self-cleavage turned out to be 0.8.
With G25C G57C the figure was 0.12; with U14G G17A, 0.854.
In the case of C46G G68U, the self-cleavage came to 0.19.
Take C38U: the self-cleavage was found to be 0.497.
Then U33G G42C, with 0.166; and U55C U62A, with 0.106; and G42A G69A, with 0.112.
With A36C C66A the figure was 0.268.
Then C16A A61C, with 0.359.
A47C C66A: the self-cleavage was found to be 0.205.
With A47G U60G the figure was 0.0656.
Then G15C A71C, with 1.29; and U2A G34C, with 0.501; and G15U C18G, with 1.02.
With C6A G32U the figure was 0.133.
Regarding G34A A43G, the self-cleavage turned out to be 0.0724.
As to G29C U62G, the self-cleavage was 0.18.
Then A45C A59G, with 0.208.
Then C3A C50A, with 0.145; and C37G U62C, with 0.152.
With C10A A41C the figure was 0.752; with A28G C66U, 0.654.
Take U2G C50G: the self-cleavage was 0.1.
With G40C A47C the figure was 0.142; with A24C A61G, 0.156.
For A24C A61C, the self-cleavage was determined as 0.139.
On to G1U U70G, for which the self-cleavage turned out to be 0.0694.
Then U52G U67C, with 0.203; and A49C U70A, with 0.157; and G1U U9A, with 0.115.
Consider A43C U58A, for which the self-cleavage amounted to 0.174.
With A24C U67A the figure was 0.185; with U20G A61G, 0.257; with G27C A61C, 0.0843.
Then G34C U70C, with 1.42; and C37G C65A, with 0.179.
Then C16U C18A, with 0.985; and C4A A44G, with 0.0937.
With C37U A39C, the self-cleavage worked out at 0.0611.
Take G15U G27C: the self-cleavage amounted to 0.278.
U2G U7A: the self-cleavage came to 0.255.
Then A24G A30U, with 0.124; and C18U G21C, with 0.883.
Then G27U A28C, with 0.179.
With C10G G42C the figure was 0.307; with G25C C48G, 0.127.
In the case of U8A A11G, the self-cleavage amounted to 0.772.
With A28G A44G the figure was 0.222.
Regarding U58G A71C, the self-cleavage amounted to 1.07.
With A26U U53C the figure was 0.599; with U5A G51A, 0.393; with C48G A49G, 0.123.
Then U33A A71G, with 0.178.
Regarding G25A A28G, the self-cleavage is 0.849.
With G27U U53A the figure was 0.111.
On to G13U G32A, for which the self-cleavage amounted to 0.183.
Then C18A G68U, with 0.239; and A24G A64G, with 0.533.
With A49U the figure was 0.179; with U7C A26C, 0.275; with U14C A71C, 1.59.
Turning to G34A A47G, the self-cleavage is 0.302.
Then C4G A22G, with 0.326; and A28U G51U, with 0.485.
Then U8A A26U, with 0.421; and A28C G42A, with 0.29.
With U14A A49C the figure was 0.117; with C37U U62C, 0.0928; with A22G A31C, 0.159.
As to G40A A59U, the self-cleavage amounted to 0.136.
Then U58C A61G, with 0; and G27U G29C, with 0.101.
With G17A U55A the figure was 0.0892; with G1A A31U, 0.284.
With A35U A44C, the self-cleavage was found to be 0.267.
With C6A G29U the figure was 0.124.
With A64C C66A, the self-cleavage worked out at 0.0503.
Then A28G A59C, with 0.114; and C6G G42U, with 0.113.
Then A41C U58G, with 1.18; and U55C U63A, with 0.18; and U14C U67C, with 0.227.
Then G13A C48U, with 0.22.
With U8A C66A, the self-cleavage was 0.128.
Then U52G G56C, with 0.0868.
As to A43G U58A, the self-cleavage was determined as 0.128.
Then A36U C50A, with 0.242.
With C12A G54C the figure was 0.389; with C38G C48U, 0.108; with G13U U14C, 0.544.
Then U33G C48U, with 0.112; and A36G A41C, with 1.1; and U33G U52C, with 0.145.
Take A24U C37G: the self-cleavage amounted to 0.292.
As to A24U C37U, the self-cleavage was 0.734.
With A35U A39U, the self-cleavage was determined as 0.391.
Then G17A G56C, with 0.185; and C6A U8A, with 0.319; and A41G A59U, with 0.138.
